Values of other authors in patent US6878743B2, “Small molecule inhibitors of caspases” (Sunesis Pharmaceuticals, Inc., priority 2001, dated 2005).

Experiments:
caspase-1 = target: T1, caspase-1 (Homo sapiens, UniProt P29466); conditions: Garcia-Calvo et al. 1998
T1 sequence (P29466 120-297 limits assumed): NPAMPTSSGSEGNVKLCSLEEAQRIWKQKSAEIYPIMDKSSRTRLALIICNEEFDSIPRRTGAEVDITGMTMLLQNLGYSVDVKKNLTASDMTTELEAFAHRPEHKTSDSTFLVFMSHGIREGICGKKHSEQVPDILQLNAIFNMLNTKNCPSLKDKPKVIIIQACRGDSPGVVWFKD
T1 sequence (P29466 317-404 limits assumed): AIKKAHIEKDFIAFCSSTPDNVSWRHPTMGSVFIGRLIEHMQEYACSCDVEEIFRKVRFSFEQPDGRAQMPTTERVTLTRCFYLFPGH

caspase-3 = target: T2, caspase-3 (Homo sapiens, UniProt P42574); conditions: Garcia-Calvo et al. 1998
T2 sequence (P42574 29-175 limits assumed): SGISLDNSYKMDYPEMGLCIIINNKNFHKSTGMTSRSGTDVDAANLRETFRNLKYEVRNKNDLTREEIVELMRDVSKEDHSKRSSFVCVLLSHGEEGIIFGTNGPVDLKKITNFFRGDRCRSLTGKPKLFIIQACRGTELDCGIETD
T2 sequence (P42574 176-277 limits assumed): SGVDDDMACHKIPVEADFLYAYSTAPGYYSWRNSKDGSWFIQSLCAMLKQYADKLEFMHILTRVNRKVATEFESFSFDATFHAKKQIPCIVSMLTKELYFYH

Q: For Ac-Asp-Glu-Val-Asp-CHO, which Ki (caspase-1) is on record?
A: 18 nM

Q: With Ac-Tyr-Val-Ala-Asp-CHO as the substance, how does the Ki (caspase-1) read?
A: 0.056 nM

Q: And the Ki (caspase-3)?
A: 1960 nM
